# B1: plasma kallikrein (enzyme)
# heavy: GCLTQLYENAFFRGGDVASMYTPNAQYCQMRCTFHPRCLLFSFLPASSINDMEKRFGCFLKDSVTGTLPKVHRTGAVSGHSLKQCGHQISACHRDIYKGVDMRGVNFNVSKVSSVEECQKRCTSNIRCQFFSYATQTFHKAEYRNNCLLKYSPGGTPTAIKVLSNVESGFSLKPCALSEIGCHMNIFQHLAFSDVDVARVLTPDAFVCRTICTYHPNCLFFTFYTNVWKIESQRNVCLLKTSESGTPSSSTPQENTISGYSLLTCKRTLPEPCHSKIYPGVDFGGEELNVTFVKGVNVCQETCTKMIRCQFFTYSLLPEDCKEEKCKCFLRLSMDGSPTRIAYGTQGSSGYSLRLCNTGDNSVCTTKTSTR
# light: not shown
# B2: Ixodes ricinus contact phase inhibitor (Ir-CPI) (natural protein)
# chain: ANHKGRGRPAKCKLPPDDGPCRARIPSYYFDRKTKTCKEFMYGGCEGNENNFENITTCQEECRAKKV
# B3: activated factor XII (FXIIa) (enzyme, human)
# heavy: IPPWEAPKEHKYKAEEHTVVLTVTGEPCHFPFQYHRQLYHKCTHKGRPGPQPWCATTPNFDQDQRWGYCLEPKKVKDHCSKHSPCQKGGTCVNMPSGPHCLCPQHLTGNHCQKEKCFEPQLLRFFHKNEIWYRTEQAAVARCQCKGPDAHCQRLASQACRTNPCLHGGRCLEVEGHRLCHCPVGYTGAFCDVDTKASCYDGRGLSYRGLARTTLSGAPCQPWASEATYRNVTAEQARNWGLGGHAFCRNPDNDIRPWCFVLNRDRLSWEYCDLAQCQTPTQAAPPTPVSPRLHVPLMPAQPAPPKPQPTTRTPPQSQTPGALPAKREQPPSLTRNGPLSCGQRLRKSLSSMTR
# light: VVGGLVALRGAHPYIAALYWGHSFCAGSLIAPCWVLTAAHCLQDRPAPEDLTVVLGQERRNHSCEPCQTLAVRSYRLHEAFSPVSYQHDLALLRLQEDADGSCALLSPYVQPVCLPSGAARPSETTLCQVAGWGHQFEGAEEYASFLQEAQVPFLSLERCSAPDVHGSSILPGMLCAGFLEGGTDACQGDSGGPLVCEDQAAERRLTLQGIISWGSGCGDRNKPGVYTDVAYYLAWIREHTVS
# Key:
# Test in all cases: SPR
# [1] = molecular target: B2
# plasma kallikrein = molecular target: B1
# [2] = molecular target: activated factor XI (FXIa) (human, UniProt P03951 19-387; P03951 388-625)
# [3] = molecular target: B3
# activated factor XI (FXIa), sequence (P03951 19-387, chain 1 of 2): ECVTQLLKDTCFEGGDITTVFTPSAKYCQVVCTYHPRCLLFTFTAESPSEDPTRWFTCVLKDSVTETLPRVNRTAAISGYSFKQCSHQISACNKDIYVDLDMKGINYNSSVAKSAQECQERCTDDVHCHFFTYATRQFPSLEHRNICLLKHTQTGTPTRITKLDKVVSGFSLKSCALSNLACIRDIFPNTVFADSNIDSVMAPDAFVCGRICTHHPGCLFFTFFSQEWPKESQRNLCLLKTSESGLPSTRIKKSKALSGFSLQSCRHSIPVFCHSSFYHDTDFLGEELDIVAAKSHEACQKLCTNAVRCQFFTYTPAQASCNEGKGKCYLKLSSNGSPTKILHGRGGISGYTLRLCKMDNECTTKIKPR
# activated factor XI (FXIa), sequence (P03951 388-625, chain 2 of 2): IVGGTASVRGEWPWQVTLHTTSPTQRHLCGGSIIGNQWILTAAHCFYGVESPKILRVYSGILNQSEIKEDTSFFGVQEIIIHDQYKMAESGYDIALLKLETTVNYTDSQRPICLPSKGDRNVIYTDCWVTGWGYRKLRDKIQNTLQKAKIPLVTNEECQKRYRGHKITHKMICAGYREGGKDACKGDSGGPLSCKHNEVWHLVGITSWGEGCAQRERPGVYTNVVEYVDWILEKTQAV
# plasma kallikrein, sequence (P03952 391-638): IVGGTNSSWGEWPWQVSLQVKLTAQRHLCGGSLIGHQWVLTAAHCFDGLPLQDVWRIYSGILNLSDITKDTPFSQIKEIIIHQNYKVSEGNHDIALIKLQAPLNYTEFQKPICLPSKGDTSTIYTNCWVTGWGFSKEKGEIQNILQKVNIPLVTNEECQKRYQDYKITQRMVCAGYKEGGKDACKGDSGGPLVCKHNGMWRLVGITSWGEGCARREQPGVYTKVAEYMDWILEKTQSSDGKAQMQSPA
Binder,"ka1 (two-state model, formation of AB) [1] [M⁻¹ s⁻¹]","ka2 (two-state model, forward conformation change) [1] [s⁻¹]","kd1 (two-state model, dissociation of AB) [1] [s⁻¹]","kd2 (two-state model, backward conformation change) [1] [s⁻¹]",Ka (plasma kallikrein) [M⁻¹],Ka [2] [M⁻¹],Ka [3] [M⁻¹]
B1,34900,0.00834,0.0532,0.00142,–,–,–
B2,–,–,–,–,4.51e+06,3.83e+08,1.68e+08
B3,219000,0.655,0.0946,0.105,–,–,–
